Legend:
thrombin [1] = target: T1, thrombin (UniProt P00734;P00734 328-363;364-622); test: kinetic exclusion assay (KinExA), n-curve analysis; 1:1 model; FA 10 pM, 50 pM, 1 nM; fitted FA activity ~47%; 1:1 fit deviates at high thrombin; PBS with 0.02% sodium azide and 1 mg/mL BSA; incubation 2 h (50 pM, 1 nM FA) or 6.5 h (10 pM FA); thrombin 5 pM to 1 uM; pH and temperature not stated
thrombin [2] = target: T1, thrombin; test: kinetic exclusion assay (KinExA), two-population competitive fit; hypothetical second FA population (16%); the other 84% fixed at Kd 298 pM; PBS with 0.02% sodium azide and 1 mg/mL BSA; incubation 2 h (50 pM, 1 nM FA) or 6.5 h (10 pM FA); thrombin 5 pM to 1 uM; pH and temperature not stated

**Q.** Which Kd (thrombin [1]) does the source give for AGTCCGTGGTAGGGCAGGTTGGGGTGACT (structured_DNA) [29-nt thrombin aptamer (Tasset et al.), fluorescent aptamer FA] here?
**A.** 0.298 nM

**Q.** And the Kd (thrombin [2])?
**A.** 500 nM

From publication PMC7348807
